Laboratory results published in patent US20220089743A1 (Chugai, published 2022).

Experiments:
[1] = molecular target: T1, HLA-DQ7.5 on Ba/F3 cells (human, UniProt P01909 24-216; P01920 33-230, limits assumed); experiment: FACS, Ba/F3 cells; %MFI with IC17dK 0 and DQN0139bb 100
T1 construct: whole, on cells; also called Ba/F3-HLA-DQ7.5

[2] = molecular target: T2, HLA-DQ2.2 on Ba/F3 cells (human, UniProt P01909 24-216, limits assumed); experiment: as above
T2 construct: whole, on cells; also called Ba/F3-HLA-DQ2.2
T2 MHC II alpha: not shown
T2 MHC II beta: not shown

[3] = molecular target: T3, HLA-DQ2.5 on Ba/F3 cells (human, UniProt P01909 24-216, limits assumed); experiment: as above
T3 construct: whole, on cells; MHC class II without a fused peptide; also called Ba/F3-HLA-DQ2.5

[4] = molecular target: T4, HLA-DQ7.3 on Ba/F3 cells (human, UniProt P01909 24-216; P01920 33-230, limits assumed); experiment: as above
T4 construct: whole, on cells; also called Ba/F3-HLA-DQ7.3
T4 MHC II alpha: not shown
T4 MHC II beta: not shown

[5] = molecular target: T5, HLA-DQ8 on Ba/F3 cells (human, UniProt P01909 24-216; P01920 33-230, limits assumed); experiment: as above
T5 construct: whole, on cells; also called Ba/F3-HLA-DQ8
T5 MHC II alpha: not shown
T5 MHC II beta: not shown

[6] = molecular target: HLA-DQ2.5 on IHW09023 cells loaded with gamma 1 gliadin peptide (human; wheat); experiment: cell-based or functional assay
[7] = molecular target: HLA-DQ2.5 on IHW09023 cells loaded with gamma 4a gliadin peptide (human; wheat); experiment: cell-based or functional assay
[8] = molecular target: HLA-DQ2.5 on IHW09023 cells loaded with gamma 2 gliadin peptide (human; wheat); experiment: cell-based or functional assay
[9] = molecular target: HLA-DQ2.5 on IHW09023 cells loaded with gamma 3 gliadin peptide (human; wheat); experiment: cell-based or functional assay
[10] = molecular target: HLA-DQ2.5 on IHW09023 cells loaded with 33 mer gliadin peptide (human; wheat); experiment: cell-based or functional assay
[11] = molecular target: HLA-DQ2.5 on IHW09023 cells loaded with BC hordein peptide (human; barley); experiment: cell-based or functional assay
[12] = molecular target: HLA-DQ2.5 on IHW09023 cells loaded with omega1/2 gliadin peptide (human; wheat); experiment: cell-based or functional assay
[13] = molecular target: HLA-DQ2.5 on IHW09023 cells loaded with gamma 4d gliadin peptide (human; wheat); experiment: cell-based or functional assay
[14] = molecular target: T6, HLA-DQ5.1 on Ba/F3 cells (human, limits assumed); experiment: FACS, Ba/F3 cells; raw MFI
T6 construct: whole, on cells; also called Ba/F3-HLA-DQ5.1
T6 MHC II alpha: not shown
T6 MHC II beta: not shown

[15] = molecular target: T7, HLA-DP on Ba/F3 cells (human, UniProt P20036 29-222; P04440 30-225, limits assumed); experiment: FACS, Ba/F3 cells; raw MFI
T7 construct: whole, on cells; also called Ba/F3-HLA-DP

[16] = molecular target: T8, HLA-DR on Ba/F3 cells (human, UniProt P01903 26-216; P79483 30-227, limits assumed); experiment: FACS, Ba/F3 cells; raw MFI
T8 construct: whole, on cells; also called Ba/F3-HLA-DR
T8 MHC II alpha: not shown
T8 MHC II beta: not shown

[17] = molecular target: T9, HLA-DQ6.3 on Ba/F3 cells (human, UniProt P01920 33-230, limits assumed); experiment: FACS, Ba/F3 cells; raw MFI
T9 construct: whole, on cells; also called Ba/F3-HLA-DQ6.3
T9 MHC II alpha: not shown
T9 MHC II beta: not shown

T7 sequence (P20036 29-222 limits assumed, chain 1 of 4, other chains not shown): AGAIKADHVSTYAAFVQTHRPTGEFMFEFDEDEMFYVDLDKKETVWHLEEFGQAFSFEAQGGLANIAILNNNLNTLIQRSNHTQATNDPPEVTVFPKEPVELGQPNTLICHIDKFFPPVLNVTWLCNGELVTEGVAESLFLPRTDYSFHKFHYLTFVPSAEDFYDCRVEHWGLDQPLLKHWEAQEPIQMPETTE
T7 sequence (P04440 30-225 limits assumed, chain 2 of 4, other chains not shown): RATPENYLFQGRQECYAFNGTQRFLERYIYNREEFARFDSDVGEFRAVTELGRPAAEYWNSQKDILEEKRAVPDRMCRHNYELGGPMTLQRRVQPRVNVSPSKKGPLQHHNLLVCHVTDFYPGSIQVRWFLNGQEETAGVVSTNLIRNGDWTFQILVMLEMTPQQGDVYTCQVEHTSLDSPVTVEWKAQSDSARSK

B1: DQN0344H1013/L0620//DQN0385H1521/L0605-F6 (bispecific antibody)
heavy 1: QVQLVESGGGVVQPGRSLRLSCAASGFTFSSAYWMVWVRQAPGQGLEWMGAVYGGSDTTYYAKWTEGRFTISRDTSKNTLYLQMNSLRAEDTAVYYCAREPLNYYYYGELNVWGQGTLVTVSSASTKGPSVFPLAPSSKSTSGGTAALGCLVKDYFPEPVTVSWNSGALTSGVHTFPAVLKSSGLYSLSSVVTVPSSSLGTQTYICNVNHKPSNTKVDKRVEPKSCDKTHTCPPCPAPELRRGPSVFLFPPKPKDTLMISRTPEVTCVVVDVSHEDPEVKFNWYVDGVEVHNAKTKPREEQYNSTYRVVSVLTVLHQDWLNGKEYKCKVSNKALPAPIEKTISKAKGQPREPQVYTLPPSREEMTKNQVSLTCLVKGFYPSDIAVEWESNGQPENNYKTTPPYLDSDGSFFLYSKLTVDKSRWQEGNVFSCSVLHEALHAHYTREELSLSP
light 1: DIQMTQSPSSLSASVGDRVTITCQATENIYSGLAWYQQKPGKAPKLLIYYVSTLAYGIPARFSGSGSGTDFTLTISSLEPEDFAVYYCQTYEDVSAVTFGQGTKVEIKRTVAAPSVFIFPPSDEQLKSGTAEVVCLLNNFYPREAKVQWKVDNALQSGNSEESVTEQDSKDSTYSLSSTLTLSKADYEKHKVYACEVTHQGLSSPVTKSFNRGEC
heavy 2: QVQLVESGGGVVQPGRSLRLSCAASGFTFESWYFMSWVRQAPGKGLEWVASIDTGSGSIDYAEWVEGRFTISRDNSKNTLYLQMNSLRAEDTAVYYCARDIGIDYNFWGPGTLVTVSSASTKGPSVFPLAPSSKSTSGGTAALGCLVEDYFPEPVTVSWNSGALTSGVHTFPAVLESSGLYSLSSVVTVPSSSLGTKTYICNVNHKPSNTKVDKRVEPKSCDKTHTCPPCPAPELRRGPSVFLFPPKPKDTLMISRTPEVTCVVVDVSHEDPEVKFNWYVDGVEVHNAKTKPREEQYNSTYRVVSVLTVLHQDWLNGKEYKCKVSNKALPAPIEKTISKAKGQPREPQVYTLPPSRKEMTKNQVSLTCLVKGFYPSDIAVEWESNGQPENNYKTTPPYLDSDGSFFLYSKLTVDKSRWQQGNVFSCSVLHEALHAHYTRKELSLSP
light 2: DIQMTQSPSSLSASVGDRVTITCQTTQSISSYLNWYQQKPGQPPKLLIYYASTKAEGIPARFSGSGSGTDFTLTISSLEPEDFAVYYCHYGISKVSFGQGTKVEIKRTVAAPSVFIFPPSDEQLKSGTAKVVCLLNNFYPREAKVQWKVDNALQSGNSKESVTEQDSKDSTYSLSSTLTLSKADYEKHKVYACEVTHQGLSSPVTKSFNRGEC
B1: no binding (tested: 0.05 ug/mL) [1]; no binding (tested: 0.05 ug/mL) [2]; no binding (tested: 0.05 ug/mL) [3]. The binding result [4] was “no binding (tested: 0.05 ug/mL)”, the binding result [5] was “no binding (tested: 0.05 ug/mL)” and the “IC50, γ1 gliadin TCR, 250 nM γ1 gliadin” value [6] was 0.68 ng/mL. The “IC50, γ4a gliadin TCR, 25 µM γ4a gliadin” value [7] was 1350 ng/mL, the “IC50, γ2 gliadin TCR, 250 nM γ2 gliadin” value [8] was 853 ng/mL and the “IC50, γ3 gliadin TCR, 100 µM γ3 gliadin” value [9] was 1.4 ng/mL. The “IC50, α1a gliadin TCR, 250 nM 33mer gliadin” value [10] was 0.28 ng/mL, the “IC50, α1b gliadin TCR, 250 nM 33mer gliadin” value [10] was 1.76 ng/mL and the “IC50, α2 gliadin TCR, 250 nM 33mer gliadin” value [10] was 0.33 ng/mL. The “IC50, BC hordein TCR, 250 nM BC hordein” value [11] was 8.98 ng/mL, the “IC50, ω1 gliadin TCR, 25 µM ω1/2 gliadin” value [12] was 1.91 ng/mL and the “IC50, γ4d gliadin TCR, 100 µM γ4d gliadin” value [13] was 13 ng/mL. B1: no binding (tested: 0.05 ug/mL) [14]; no binding (tested: 0.05 ug/mL) [15]; no binding (tested: 0.05 ug/mL) [16]. B1: no binding (tested: 0.05 ug/mL) [17].
